B1: E3 ubiquitin-protein ligase CHIP (Homo sapiens), Q9UNE7-1 (parent)
chain: MKGKEEKEGGARLGAGGGSPEKSPSAQELKEQGNRLFVGRKYPEAAACYGRAITRNPLVAVYYTNRALCYLKMQQHEQALADCRRALELDGQSVKAHFFLGQCQLEMESYDEAIANLQRAYSLAKEQRLNFGDDIPSALRIAKKKRWNSIEERRIHQESELHSYLSRLIAAERERELEECQRNHEGDEDDSHVRAQQACIEAKHDKYMADMDELFSQVDEKRKKRDIPDYLCGKISFELMREPCITPSGITYDRKDIEEHLQRVGHFDPVTRSPLTQEQLIPNLAMKEVIDAFISENGWVEDY

Variants of: B1
Settings: with lrrk2_human LRRK2, Q5S007
lrrk2_human LRRK2, Q5S007, sequence (Q5S007 whole entry): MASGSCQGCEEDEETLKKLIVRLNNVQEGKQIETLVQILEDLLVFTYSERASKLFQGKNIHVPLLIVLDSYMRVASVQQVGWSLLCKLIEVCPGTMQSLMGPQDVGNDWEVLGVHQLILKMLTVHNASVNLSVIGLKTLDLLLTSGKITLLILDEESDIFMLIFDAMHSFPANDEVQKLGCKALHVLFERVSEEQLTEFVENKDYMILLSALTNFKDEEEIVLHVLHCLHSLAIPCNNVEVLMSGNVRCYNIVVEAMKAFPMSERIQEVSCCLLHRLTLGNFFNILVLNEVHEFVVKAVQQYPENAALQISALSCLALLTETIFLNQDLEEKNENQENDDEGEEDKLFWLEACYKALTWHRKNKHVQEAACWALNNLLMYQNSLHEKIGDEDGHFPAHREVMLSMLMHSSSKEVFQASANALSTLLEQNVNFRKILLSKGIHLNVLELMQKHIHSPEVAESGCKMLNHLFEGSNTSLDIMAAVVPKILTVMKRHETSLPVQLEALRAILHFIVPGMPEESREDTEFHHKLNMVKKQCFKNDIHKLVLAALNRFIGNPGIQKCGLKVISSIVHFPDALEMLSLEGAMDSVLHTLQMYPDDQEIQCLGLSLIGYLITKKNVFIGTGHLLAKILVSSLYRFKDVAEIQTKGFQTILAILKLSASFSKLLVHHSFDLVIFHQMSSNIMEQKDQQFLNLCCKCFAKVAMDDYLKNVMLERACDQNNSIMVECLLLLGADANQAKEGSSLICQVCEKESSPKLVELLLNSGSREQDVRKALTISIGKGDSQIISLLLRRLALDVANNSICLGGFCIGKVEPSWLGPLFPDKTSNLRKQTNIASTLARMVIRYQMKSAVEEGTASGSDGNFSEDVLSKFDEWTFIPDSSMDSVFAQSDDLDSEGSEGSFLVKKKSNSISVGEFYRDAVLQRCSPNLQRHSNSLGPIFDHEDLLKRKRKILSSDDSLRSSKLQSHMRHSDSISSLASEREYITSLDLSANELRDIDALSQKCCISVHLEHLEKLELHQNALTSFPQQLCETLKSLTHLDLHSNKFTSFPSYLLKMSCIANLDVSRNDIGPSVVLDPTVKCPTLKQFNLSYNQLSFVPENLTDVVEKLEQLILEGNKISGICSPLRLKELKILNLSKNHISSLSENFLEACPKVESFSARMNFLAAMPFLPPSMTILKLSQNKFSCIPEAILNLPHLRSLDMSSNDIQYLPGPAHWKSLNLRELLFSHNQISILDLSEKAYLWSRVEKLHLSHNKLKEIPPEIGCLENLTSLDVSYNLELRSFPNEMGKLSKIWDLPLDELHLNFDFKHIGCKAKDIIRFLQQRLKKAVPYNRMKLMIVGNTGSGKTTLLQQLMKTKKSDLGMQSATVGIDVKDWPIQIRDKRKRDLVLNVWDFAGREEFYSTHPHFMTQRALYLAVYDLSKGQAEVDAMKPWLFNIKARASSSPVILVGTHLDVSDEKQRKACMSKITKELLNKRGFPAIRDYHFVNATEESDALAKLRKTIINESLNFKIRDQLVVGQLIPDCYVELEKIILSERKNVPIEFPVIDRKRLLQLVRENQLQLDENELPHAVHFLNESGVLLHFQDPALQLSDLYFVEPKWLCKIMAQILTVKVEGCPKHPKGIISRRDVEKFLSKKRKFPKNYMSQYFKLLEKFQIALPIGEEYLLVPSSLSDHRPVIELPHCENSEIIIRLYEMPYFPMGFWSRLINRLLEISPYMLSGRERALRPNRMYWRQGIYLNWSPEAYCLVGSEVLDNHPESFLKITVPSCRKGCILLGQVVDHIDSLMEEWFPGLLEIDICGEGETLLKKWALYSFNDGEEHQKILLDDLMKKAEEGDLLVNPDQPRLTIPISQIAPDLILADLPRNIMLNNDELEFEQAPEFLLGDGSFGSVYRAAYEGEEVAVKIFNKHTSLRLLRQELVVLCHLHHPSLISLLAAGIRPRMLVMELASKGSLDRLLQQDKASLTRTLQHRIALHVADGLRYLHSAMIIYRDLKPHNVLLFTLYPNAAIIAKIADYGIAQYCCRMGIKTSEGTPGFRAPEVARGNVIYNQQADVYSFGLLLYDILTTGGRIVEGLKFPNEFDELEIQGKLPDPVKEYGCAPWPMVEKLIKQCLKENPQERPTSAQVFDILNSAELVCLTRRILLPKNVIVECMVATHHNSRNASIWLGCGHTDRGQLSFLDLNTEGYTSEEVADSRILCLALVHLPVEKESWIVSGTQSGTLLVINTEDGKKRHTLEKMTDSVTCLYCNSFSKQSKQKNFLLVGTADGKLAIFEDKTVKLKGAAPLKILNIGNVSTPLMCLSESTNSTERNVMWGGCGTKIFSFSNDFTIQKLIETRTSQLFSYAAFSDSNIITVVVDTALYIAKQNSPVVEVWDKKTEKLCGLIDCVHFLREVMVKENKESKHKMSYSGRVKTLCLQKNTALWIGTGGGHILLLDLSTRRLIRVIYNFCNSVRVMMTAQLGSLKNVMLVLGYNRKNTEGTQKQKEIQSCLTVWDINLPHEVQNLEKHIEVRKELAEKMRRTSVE

Row | Variant | effect of a mutation on the interaction
1 | K30C | disrupting interaction
